# Tests used:
# PRDM14 wild-type peptide = test: FP
# NCOA2 wild-type peptide = test: FP
Binder,Kd (PRDM14 wild-type peptide),Kd (NCOA2 wild-type peptide)
"SARS‐CoV‐2 NSP3 SUD‐M domain (1356–1493), tag cleaved, for FP (domain or fragment) LPSIISNEKQEILGTVSWNLREMLAHAEETRKLMPVCVETKAIVSTIQRKYKGIKIQEGVVDYGARFYFYTSKTTVASLINTLNDLNETLVTMPLGYVTHGLNLEEAARYMRSLKVPATVSVSSPDAVTAYNGYLTSS",74 µM,–
"SARS‐CoV‐2 NSP3 UBl1 domain (819–925), tag cleaved, for FP (domain or fragment) APTKVTFGDDTVIEVQGYKSVNITFELDERIDKVLNEKCSAYTVELGTEVNEFACVVADAVIKTLQPVSELLTPLGIDLDEWSMATYYLFDESGEFKLASHMYCSFY",–,39 µM

# — publication PMC12102759 (2025)
